One assay has as its target GAPDH (UniProt P04406). Conditions: cited from earlier work.
Assay [1] addresses Glyceraldehyde-3-phosphate dehydrogenase (rabbit muscle GAPDH) (rabbit) (UniProt P46406).
Chain of UniProt P46406 (P46406 whole entry): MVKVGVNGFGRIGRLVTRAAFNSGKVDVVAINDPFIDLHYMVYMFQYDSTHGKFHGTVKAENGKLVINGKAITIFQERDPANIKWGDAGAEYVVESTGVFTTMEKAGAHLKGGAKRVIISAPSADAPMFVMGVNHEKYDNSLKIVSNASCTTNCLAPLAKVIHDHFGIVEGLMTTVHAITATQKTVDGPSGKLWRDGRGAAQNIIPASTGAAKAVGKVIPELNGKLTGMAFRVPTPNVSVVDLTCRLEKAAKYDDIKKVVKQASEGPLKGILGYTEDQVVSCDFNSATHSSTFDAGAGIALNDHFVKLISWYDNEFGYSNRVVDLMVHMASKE

Chain of UniProt P04406 (P04406 2-335): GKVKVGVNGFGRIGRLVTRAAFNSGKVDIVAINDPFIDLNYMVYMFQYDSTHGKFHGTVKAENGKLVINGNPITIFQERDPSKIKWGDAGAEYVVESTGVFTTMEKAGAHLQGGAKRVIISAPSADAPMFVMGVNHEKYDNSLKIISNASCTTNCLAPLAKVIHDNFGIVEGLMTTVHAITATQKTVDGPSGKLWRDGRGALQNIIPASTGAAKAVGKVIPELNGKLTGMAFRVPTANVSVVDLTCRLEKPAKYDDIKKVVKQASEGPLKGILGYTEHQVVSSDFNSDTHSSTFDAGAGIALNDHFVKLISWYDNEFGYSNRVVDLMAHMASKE
Chain of Lactoferrin (P02788 20-710): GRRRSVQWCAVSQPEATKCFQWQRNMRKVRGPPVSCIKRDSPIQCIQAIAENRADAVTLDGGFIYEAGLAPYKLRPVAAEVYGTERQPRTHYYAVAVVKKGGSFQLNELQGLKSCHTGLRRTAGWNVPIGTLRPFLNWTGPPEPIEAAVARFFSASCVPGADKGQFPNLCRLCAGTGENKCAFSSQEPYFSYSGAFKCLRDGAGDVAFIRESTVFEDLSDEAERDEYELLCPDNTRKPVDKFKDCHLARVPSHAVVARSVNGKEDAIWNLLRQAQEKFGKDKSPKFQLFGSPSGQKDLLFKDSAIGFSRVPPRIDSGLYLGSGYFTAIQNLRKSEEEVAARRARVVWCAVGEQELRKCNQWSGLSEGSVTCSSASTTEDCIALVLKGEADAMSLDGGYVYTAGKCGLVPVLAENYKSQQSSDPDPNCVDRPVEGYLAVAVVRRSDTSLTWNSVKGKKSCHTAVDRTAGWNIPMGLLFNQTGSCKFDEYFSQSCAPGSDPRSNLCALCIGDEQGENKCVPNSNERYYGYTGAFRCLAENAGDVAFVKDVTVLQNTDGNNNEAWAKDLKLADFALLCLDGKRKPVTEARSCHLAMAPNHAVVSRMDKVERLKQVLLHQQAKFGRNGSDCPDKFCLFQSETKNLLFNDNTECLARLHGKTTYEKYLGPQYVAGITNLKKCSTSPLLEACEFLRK

On to Lactoferrin (from UniProt P02788), for which the Kd – broadly, a measure of binding affinity in units of concentration – in the assay with GAPDH was 43.8 nM.

In assay [1], human lactoferrin (natural protein) displayed a Fold change in Lactoferrin MFI of cells internalizing both GAPDH and Lf vs. only lactoferrin +ve cells; CHO of 4.95 fold; a Fold change in Lactoferrin MFI of cells internalizing both GAPDH and Lf vs. only lactoferrin +ve cells; CHO-TRVb of 2.83 fold; a Fold change in Lactoferrin MFI of cells internalizing both GAPDH and Lf vs. only lactoferrin +ve cells; Human Lymphocytes of 1.27 fold; a Fold change in Lactoferrin MFI of cells internalizing both GAPDH and Lf vs. only lactoferrin +ve cells; J774 of 2.62 fold. In assay [1], this substance returned a Fold change in Lactoferrin MFI of cells internalizing both GAPDH and Lf vs. only lactoferrin +ve cells; K562 of 1.6 fold; a Fold change in Lactoferrin MFI of cells internalizing both GAPDH and Lf vs. only lactoferrin +ve cells; Mouse Bone Marrow cells of 3.7 fold; a Fold change in Lactoferrin MFI of cells internalizing both GAPDH and Lf vs. only lactoferrin +ve cells; Mouse Enterocytes of 5.52 fold; a Fold change in Lactoferrin MFI of cells internalizing both GAPDH and Lf vs. only lactoferrin +ve cells; Mouse Hepatocytes of 4.28 fold. In assay [1], the Fold change in Lactoferrin MFI of cells internalizing both GAPDH and Lf vs. only lactoferrin +ve cells; Mouse Peritoneal Macrophages (Ex vivo) is 1.17 fold; the Fold change in Lactoferrin MFI of cells internalizing both GAPDH and Lf vs. only lactoferrin +ve cells; Mouse Spleen Macrophages was 2.1 fold; the Fold change in Lactoferrin MFI of cells internalizing both GAPDH and Lf vs. only lactoferrin +ve cells; Mouse peritoneum cells (In-Vivo) came to 6.1 fold; the Fold change in Lactoferrin MFI of cells internalizing both GAPDH and Lf vs. only lactoferrin +ve cells; Neuro-2A (N2A) amounted to 4.02 fold. The Fold change in Lactoferrin MFI of cells internalizing both GAPDH and Lf vs. only lactoferrin +ve cells; PMA activated THP1 in assay [1] came out at 2.07 fold.
